Measurements: PMC4732737

Experiments:
[1] = target: AviB-tagged BG505 SOSIP.664 A316W trimer (HIV-1); experiment: BLI
[2] = target: AviB-tagged BG505 SOSIP.v4.2 trimer (HIV-1); experiment: BLI

Q: Which results are given for soluble CD4 (domain or fragment)?
A: fold reduction of affinity against the wild-type trimer [1]: 2.4 fold; fold reduction of affinity against the wild-type trimer [2]: 2.4 fold
